Data as given in patent US20240116985A1 (published 2024).
Starred links: 1 amine or outer side, 2 acyl side, 3 side chain; linkers in the order of their positions; H or OH if unused. Positions of bridges follow the written chain, without caps; N, C: chain ends. Non-standard residues stand in square brackets, D forms with d. Primed or numbered codes have the meaning given here. *: point of attachment. PyrS2″ = (S)-3-amino-1-((pent-4-en-1-yloxy)carbonyl)pyrrolidine-3-carboxylic acid (stapling residue), C=CCCCOC(=O)N1CC[C@@](N[*:1])(C(=O)[*:2])C1; B5(18) = 2,2-bis(4-pentenyl)glycine (2-amino-2-(pent-4-en-1-yl)hept-6-enoic acid), stitching residue, C=CCCCC(CCCC=C)(N[*:1])C(=O)[*:2]; TfeGA = (S)-2-amino-3-((carboxymethyl)(2,2,2-trifluoroethyl)amino)propanoic acid, O=C([C@H](CN(CC(=O)[*:3])CC(F)(F)F)N[*:1])[*:2]; PyrS2 = (S)-3-amino-1-((pent-4-en-1-yloxy)carbonyl)pyrrolidine-3-carboxylic acid, C=CCCCOC(=O)N1CC[C@@](N[*:1])(C(=O)[*:2])C1; B5(3) = 2,2-bis(4-pentenyl)glycine (stitching residue), C=CCCCC(CCCC=C)(N[*:1])C(=O)[*:2]; Me3AdamantC = 3,5,7-trimethyladamantane-1-carbonyl, CC12CC3(C)CC(C)(C1)CC(C(=O)*)(C2)C3; Me2NCBz = 4-((dimethylamino)methyl)benzoyl on Lys side chain, CN(C)Cc1ccc(C(=O)*)cc1; B5(28) = 2,2-bis(4-pentenyl)glycine, C=CCCCC(CCCC=C)(N[*:1])C(=O)[*:2]; Phe(3-Cl) = N[C@@H](Cc1cccc(Cl)c1)C(=O)O; Phe(2-Cl) = N[C@@H](Cc1ccccc1Cl)C(=O)O; Bta = N[C@@H](Cc1csc2ccccc12)C(=O)O; αAllylPro = C=CC[C@@]1(C(=O)O)CCCN1; tBuAla = CC(C)(C)C[C@H](N)C(=O)O; 3Thi = N[C@@H](Cc1ccsc1)C(=O)O; S8 = C=CCCCCCC[C@](C)(N)C(=O)O; PyrS2(4) = not defined here; TfeGA″ = not defined here; Octanoyl = CCCCCCCC(=O)*

T1: B-cat-Halo (UniProt P35222 1-781, HaloTag NanoBRET 618 Ligand bound to the HaloTag in the assay)
T1 sequence (looked up): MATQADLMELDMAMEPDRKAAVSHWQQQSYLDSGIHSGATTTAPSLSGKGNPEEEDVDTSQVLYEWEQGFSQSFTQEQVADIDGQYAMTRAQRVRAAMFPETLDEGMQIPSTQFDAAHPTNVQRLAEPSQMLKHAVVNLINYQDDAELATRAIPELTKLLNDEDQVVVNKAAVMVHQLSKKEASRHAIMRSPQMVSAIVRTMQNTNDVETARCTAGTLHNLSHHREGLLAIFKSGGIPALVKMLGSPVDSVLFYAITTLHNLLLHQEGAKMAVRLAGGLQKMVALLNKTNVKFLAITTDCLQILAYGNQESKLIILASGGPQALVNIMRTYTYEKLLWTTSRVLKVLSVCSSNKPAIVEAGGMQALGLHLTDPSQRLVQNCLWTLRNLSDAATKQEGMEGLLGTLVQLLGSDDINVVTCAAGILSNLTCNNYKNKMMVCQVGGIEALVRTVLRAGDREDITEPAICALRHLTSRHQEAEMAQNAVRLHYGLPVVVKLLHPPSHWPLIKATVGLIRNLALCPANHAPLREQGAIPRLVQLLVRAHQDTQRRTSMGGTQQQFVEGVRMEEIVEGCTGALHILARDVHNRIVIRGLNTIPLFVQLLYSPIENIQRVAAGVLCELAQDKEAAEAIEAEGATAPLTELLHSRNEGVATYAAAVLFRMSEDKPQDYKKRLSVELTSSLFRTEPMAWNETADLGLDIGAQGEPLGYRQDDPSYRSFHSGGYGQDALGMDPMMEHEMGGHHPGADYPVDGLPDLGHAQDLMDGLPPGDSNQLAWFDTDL

T2: B-cat-Halo (UniProt P35222 1-781)
T2 sequence (looked up): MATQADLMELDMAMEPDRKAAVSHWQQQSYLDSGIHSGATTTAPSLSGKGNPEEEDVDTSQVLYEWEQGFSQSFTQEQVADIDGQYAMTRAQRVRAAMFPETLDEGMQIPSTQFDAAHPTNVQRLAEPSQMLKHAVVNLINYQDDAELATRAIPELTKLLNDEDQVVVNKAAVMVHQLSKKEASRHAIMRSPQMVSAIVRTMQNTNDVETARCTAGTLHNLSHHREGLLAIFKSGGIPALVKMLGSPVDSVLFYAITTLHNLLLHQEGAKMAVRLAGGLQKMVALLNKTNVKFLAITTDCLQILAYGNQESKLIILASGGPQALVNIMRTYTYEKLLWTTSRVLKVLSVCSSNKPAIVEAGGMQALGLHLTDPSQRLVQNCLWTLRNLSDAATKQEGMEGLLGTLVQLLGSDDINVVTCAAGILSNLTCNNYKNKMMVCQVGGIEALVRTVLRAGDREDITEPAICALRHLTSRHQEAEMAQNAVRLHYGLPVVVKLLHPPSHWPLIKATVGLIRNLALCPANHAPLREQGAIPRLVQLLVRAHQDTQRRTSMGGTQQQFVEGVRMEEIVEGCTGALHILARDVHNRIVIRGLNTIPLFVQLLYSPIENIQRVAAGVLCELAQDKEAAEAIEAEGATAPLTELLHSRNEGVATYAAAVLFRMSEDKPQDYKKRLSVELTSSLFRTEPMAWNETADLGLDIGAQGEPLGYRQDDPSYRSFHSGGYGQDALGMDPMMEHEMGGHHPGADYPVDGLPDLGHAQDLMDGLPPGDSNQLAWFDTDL

B1: I-918 (peptide)
peptide: Ac-[αAllylPro]D[tBuAla][B5(3)]DDAAFN[PyrS2″][3Thi][Bta]QK(Octanoyl)-NH2
modifications: staple 1-4, 4-11; not fully specified; printed as Ac-PL3-Asp-Npg-B5-Asp-Asp-Ala-Ala-Phe-Asn-PyrS2-3Thi-BztA-Gln-[Oct]Lys-NH2
B2: I-911 (peptide)
peptide: Ac-[αAllylPro]D[tBuAla][B5(3)]DDAAFN[PyrS2″][3Thi][Bta]QK(mPEG2)-NH2
modifications: staple 1-4, 4-11; not fully specified; printed as Ac-PL3-Asp-Npg-B5-Asp-Asp-Ala-Ala-Phe-Asn-PyrS2-3Thi-BztA-Gln-[mPEG2]Lys-NH2
B3: I-916 (peptide)
peptide: Ac-[αAllylPro]D[tBuAla][B5(3)]DDAAFN[PyrS2(4)][3Thi][Bta]QK(1Napc)-NH2
modifications: staple 1-4, 4-11; reading uncertain; also: printed as Ac-PL3-Asp-Npg-B5-Asp-Asp-Ala-Ala-Phe-Asn-PyrS2-3Thi-BztA-Gln-[1Napc]Lys-NH2
B4: I-915 (peptide)
peptide: Ac-[αAllylPro]D[tBuAla][B5(3)]DDAAFN[PyrS2(4)][3Thi][Bta]QK(2Napc)-NH2
modifications: staple 1-4, 4-11; reading uncertain; also: printed as Ac-PL3-Asp-Npg-B5-Asp-Asp-Ala-Ala-Phe-Asn-PyrS2-3Thi-BztA-Gln-[2Napc]Lys-NH2

Target: T1, B-cat-Halo
Experiment: cell-based or functional assay

Ac-[αAllylPro]D[tBuAla][B5(3)]D[TfeGA]AAFN[PyrS2″][Phe(3-Cl)][Bta]Q-NH2 (staple 1-4, 4-11; not fully specified) [I-925] was tested. Which “NanoBRET Abs IC50” value did it give?
Its value is 20 µM.

How did the “NanoBRET Abs IC50” value turn out when B1 was run?
The value was 11.1 µM.

Ac-[αAllylPro]D[tBuAla][B5(3)]DDAAFN[PyrS2″][3Thi][Bta]QK(Me2NCBz)-NH2 (staple 1-4, 4-11) [I-910] was tested. Which “NanoBRET Abs IC50” value did it give?
The value was 29.8 µM.

Ac-[αAllylPro]D[tBuAla][B5(3)]DDAAFN[PyrS2″][3Thi][Bta]QK(Me3AdamantC)-NH2 (staple 1-4, 4-11) [I-920] was tested. Which “NanoBRET Abs IC50” value did it give?
Its value is 17.7 µM.

How did the “NanoBRET Abs IC50” value turn out when Ac-[αAllylPro]D[tBuAla][B5(28)]D[TfeGA″]AAFT[PyrS2][Phe(2-Cl)][Bta]Q-NH2 (staple 1-4, 4-11; reading uncertain) [I-922] was run?
Its value is 2.7 µM.

Which “NanoBRET Abs IC50” value does the source give for B2 here?
Its value is 22.9 µM.

Which “NanoBRET Abs IC50” value does the source give for B3 here?
Its value is 13.6 µM.

With Ac-[αAllylPro]D[tBuAla][B5(3)]D[TfeGA]AAFN[PyrS2″][Phe(3-Cl)][Bta]Q-NH2 (staple 1-4, 4-11; not fully specified) [I-926] as the binder, how does the “NanoBRET Abs IC50” value read?
The value was 29.9 µM.

With B4 as the binder, how does the “NanoBRET Abs IC50” value read?
Its value is 15.5 µM.

Which “NanoBRET Abs IC50” value does the source give for Ac-[αAllylPro]D[tBuAla][B5(3)]D[TfeGA]AAFN[S8][Phe(2-Cl)][Bta]Q-NH2 (staple 1-4, 4-11) [I-929] here?
The value was 10.3 µM.

Target: T2, B-cat-Halo
Experiment: cell-based or functional assay

Ac-[αAllylPro]D[tBuAla][B5(18)]D[TfeGA]LAFN[PyrS2″][Phe(2-Cl)][Bta]Q-NH2 (staple 1-4, 4-11) [I-1007] was tested. Which “NanoBRET Abs IC50” value did it give?
The value was 24.9 µM.

How did the “NanoBRET Abs IC50” value turn out when Ac-[αAllylPro]D[tBuAla][B5(18)]D[TfeGA]ASFN[PyrS2″][Phe(2-Cl)][Bta]Q-NH2 (staple 1-4, 4-11) [I-1004] was run?
Its value is 10.6 µM.

With Ac-[αAllylPro]D[tBuAla][B5(18)]D[TfeGA″]SAFN[PyrS2″][Phe(2-Cl)][Bta]Q-NH2 (staple 1-4, 4-11; reading uncertain) [I-1009] as the binder, how does the “NanoBRET Abs IC50” value read?
The value was 33.3 µM.

For Ac-[αAllylPro]D[tBuAla][B5(18)]D[TfeGA]ALFN[PyrS2″][Phe(2-Cl)][Bta]Q-NH2 (staple 1-4, 4-11) [I-1002], which “NanoBRET Abs IC50” value is on record?
The value was 29.8 µM.

How did the “NanoBRET Abs IC50” value turn out when Ac-[αAllylPro]D[tBuAla][B5(18)]D[TfeGA]IAFN[PyrS2″][Phe(2-Cl)][Bta]Q-NH2 (staple 1-4, 4-11) [I-1010] was run?
Its value is 13.3 µM.

With Ac-[αAllylPro]D[tBuAla][B5(18)]D[TfeGA]AKFN[PyrS2″][Phe(2-Cl)][Bta]Q-NH2 (staple 1-4, 4-11) [I-1006] as the binder, how does the “NanoBRET Abs IC50” value read?
Its value is greater than 20 µM.
